Laboratory results from patent publication US20200317768A1 (published 2020).
Numbering of substitutions follows the chain as printed.

T1: cynomolgus monkey FcγRIIIaS extracellular domain with C-terminal His-tag (cynomolgus monkey, UniProt Q8SPW2 21-206 at identity 1.00))
T1 construct: also called cyno FcgRIIIaS; cynoFcγRIIIaS
T1 chain: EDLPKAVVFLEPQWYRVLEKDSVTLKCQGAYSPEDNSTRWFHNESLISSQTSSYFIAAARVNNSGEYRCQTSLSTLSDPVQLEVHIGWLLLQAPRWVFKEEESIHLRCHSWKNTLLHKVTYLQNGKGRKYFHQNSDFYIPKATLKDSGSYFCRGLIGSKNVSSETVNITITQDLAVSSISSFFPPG

T2: cynomolgus monkey FcγRIIb extracellular domain with C-terminal His-tag (cynomolgus monkey)
T2 construct: also called cyno FcgRIIb; cynoFcγRIIb
T2 chain: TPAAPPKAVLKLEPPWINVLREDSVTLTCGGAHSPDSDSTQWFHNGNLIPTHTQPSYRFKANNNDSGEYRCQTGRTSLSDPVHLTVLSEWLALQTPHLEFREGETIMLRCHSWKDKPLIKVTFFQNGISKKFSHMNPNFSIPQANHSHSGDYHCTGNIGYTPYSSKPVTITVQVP

T3: cynomolgus monkey FcγRIIa1 extracellular domain with C-terminal His-tag (cynomolgus monkey)
T3 construct: also called cyno FcgRIIa1; cynoFcγRIIa1
T3 chain: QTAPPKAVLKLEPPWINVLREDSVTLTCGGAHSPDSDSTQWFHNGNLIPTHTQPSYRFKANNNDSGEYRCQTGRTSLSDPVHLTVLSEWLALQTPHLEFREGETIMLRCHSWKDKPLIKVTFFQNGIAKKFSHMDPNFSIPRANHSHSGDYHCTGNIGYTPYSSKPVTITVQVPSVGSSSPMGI

T4: human FcγRIIaR extracellular domain with C-terminal His-tag (human, UniProt P12318 34-217)
T4 construct: also called human FcgRIIaR; FcγRIIa (type R)
T4 chain: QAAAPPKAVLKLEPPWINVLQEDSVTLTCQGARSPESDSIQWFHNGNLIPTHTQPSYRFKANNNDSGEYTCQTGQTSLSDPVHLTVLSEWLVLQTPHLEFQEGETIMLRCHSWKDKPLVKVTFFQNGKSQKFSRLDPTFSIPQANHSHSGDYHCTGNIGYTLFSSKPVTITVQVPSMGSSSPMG

T5: human FcγRIIb extracellular domain with C-terminal His-tag (human, UniProt P31994 43-217)
T5 construct: also called human FcgRIIb
T5 sequence: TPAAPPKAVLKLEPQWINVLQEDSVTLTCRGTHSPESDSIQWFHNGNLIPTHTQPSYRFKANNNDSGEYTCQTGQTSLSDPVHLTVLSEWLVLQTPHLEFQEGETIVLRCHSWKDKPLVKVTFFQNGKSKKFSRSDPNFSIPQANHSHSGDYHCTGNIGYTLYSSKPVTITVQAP

T6: cynomolgus monkey FcγRIIa2 extracellular domain with C-terminal His-tag (cynomolgus monkey)
T6 construct: also called cyno FcgRIIa2; cynoFcγRIIa2
T6 chain: T3 chain with P95T, T121A, I127K, A128S, K130N, D135N, R142Q

T7: human FcγRIIaH extracellular domain with C-terminal His-tag (human, UniProt P12318 34-217)
T7 construct: also called human FcgRIIaH; FcγRIIa (type H)
T7 sequence: T4 chain with R134H

B1: M103205H795-MY522/M103202L889-SK1 (antibody, human IgG1, kappa)
heavy: QVTLKESGPVLVKPTETLTLTCTVSGIDLSHDDISWVRQAPGKGLEWVGIISYAGSTYYASWAKGRLTISKDTSKNQVVLTMTNMDPVDTATYYCARGVPAYSHGGDLWGQGTLVTVSSASTKGPSVFPLAPSSKSTSGGTAALGCLVKDYFPEPVTVSWNSGALTSGVHTFPAVLQSSGLYSLSSVVTVPSSSLGTQTYICNVNHKPSNTKVDKKVEPKSCDKTHTCPPCPGPELLTGPVVFLFPPKPKDTLMISRTPEVTCVVVDVSDEDPEVKFNWYVDGVEVHNAKTKPREEQYNSTYRVVSVLTVLHQDWLNGKEYKCKVSNKALPKPIEKTISKAKGQPREPQVYTLPPSREEMTKNQVSLTCLVKGFYPSDIAVEWESNGQPENNYKTTPPVLDSDGSFFLYSKLTVDKSRWQQGNVFSCSVMHEALHNHYTQKSLSLSP
light: DIVMTQSPATLSLSPGERATLSCTSSQSVYHANWLSWFQQKPGQPPKLLIYWASTLAYGVPSRFSGSGSGTDFTLTISSLQPEDAATYYCAGGYGGGRYAFGQGTKVEIKRTVAAPSVFIFPPSDEQLKSGTASVVCLLNNFYPREAKVQWKVDNALQSGNSQESVTEQDSKDSTYSLSSTLTLSKADYEKHKVYACEVTHQGLSSPVTKSFNRGEC
notes: Substitutions introduced into M103205H795-SG1, expressed with M103202L889-SK1 as light chain; EU numbering
B2: M103205H795-MY523/M103202L889-SK1 (antibody, human IgG1, kappa)
heavy: B1 heavy with Q297L
light: B1 light
notes: as for B1
B3: M103205H795-MY532/M103202L889-SK1 (antibody, human IgG1, kappa)
heavy: B1 heavy with G233A, L236W
light: B1 light
notes: as for B1
B4: M103205H795-MY525/M103202L889-SK1 (antibody, human IgG1, kappa)
heavy: B1 heavy with G233T
light: B1 light
notes: as for B1
B5: M103205H795-MY530/M103202L889-SK1 (antibody, human IgG1, kappa)
heavy: B1 heavy with G233A, V241S, K328T
light: B1 light
notes: as for B1
B6: M103205H795-MY526/M103202L889-SK1 (antibody, human IgG1, kappa)
heavy: B1 heavy with G233T, Q297L
light: B1 light
notes: as for B1
B7: M103205H795-MY531/M103202L889-SK1 (antibody, human IgG1, kappa)
heavy: B1 heavy with G233A, L236W, V241S, K328T
light: B1 light
notes: as for B1
B8: M103205H795-MY529/M103202L889-SK1 (antibody, human IgG1, kappa)
heavy: B1 heavy with G233A, L236W, V241S, Q297L
light: B1 light
notes: as for B1
B9: M103205H795-MY524/M103202L889-SK1 (antibody, human IgG1, kappa)
heavy: B1 heavy with V241S, Q297L
light: B1 light
notes: as for B1
B10: M103205H795-MY528/M103202L889-SK1 (antibody, human IgG1, kappa)
heavy: B1 heavy with G233A, L236W, V241S
light: B1 light
notes: as for B1
B11: M103205H795-MY527/M103202L889-SK1 (antibody, human IgG1, kappa)
heavy: B1 heavy with G233T, V241S, Q297L
light: B1 light
notes: as for B1

Biological target: T1, cynomolgus monkey FcγRIIIaS …
Assay: SPR (BIACORE), antibody captured, FcgR analyte

Row | Kd | Binder
1 | 1900 nM | B1
2 | 2100 nM | B2
3 | 860 nM | B3
4 | 1400 nM | B4
5 | 850 nM | B5
6 | 16000 nM | B6
7 | 1000 nM | B7
8 | 2200 nM | B8
9 | 2000 nM | B9
10 | 2000 nM | B10
11 | 1500 nM | B11

Biological target: T2, cynomolgus monkey FcγRIIb extracellular …
Assay: SPR (BIACORE); KD of SG1 / KD of variant;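 also: relative to parent M103205H795-SG1 carrying the SG1 human heavy chain constant region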

Row | KD fold (SG1 = 1) | Binder
12 | 3.4 fold | B1
13 | 3.8 fold | B2
14 | 7.8 fold | B3
15 | 3.5 fold | B4
16 | 5.6 fold | B5
17 | 3.9 fold | B6
18 | 6.7 fold | B7
19 | 6 fold | B8
20 | 5.8 fold | B9
21 | 4.4 fold | B10
22 | 5 fold | B11

Biological target: T3, cynomolgus monkey FcγRIIa1 …
Assay: SPR (BIACORE); KD of SG1 / KD of variant;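 also: relative to parent M103205H795-SG1 carrying the SG1 human heavy chain constant region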

Row | KD fold (SG1 = 1) | Binder
23 | 1.9 fold | B1
24 | 2.3 fold | B2
25 | 4.2 fold | B3
26 | 2 fold | B4
27 | 2.3 fold | B5
28 | 2.5 fold | B6
29 | 2.9 fold | B7
30 | 3.2 fold | B8
31 | 3.2 fold | B9
32 | 2.3 fold | B10
33 | 2.9 fold | B11

Biological target: T4, human FcγRIIaR extracellular domain …
Assay: SPR (BIACORE); KD of SG1 / KD of variant;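 also: relative to parent M103205H795-SG1 carrying the SG1 human heavy chain constant region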

Row | KD fold (SG1 = 1) | Binder
34 | 6.5 fold | B1
35 | 3.7 fold | B2
36 | 3.8 fold | B3
37 | 6.5 fold | B4
38 | 4.1 fold | B5
39 | 5.2 fold | B6
40 | 2.7 fold | B7
41 | 2.1 fold | B8
42 | 3.9 fold | B9
43 | 2 fold | B10
44 | 3.8 fold | B11

Biological target: T8, human FcγRIIIaV extracellular domain with C-terminal His-tag (human, UniProt P08637 17-208)
T8 construct: also called human FcgRIIIaV
T8 sequence (P08637 17-208 F176V): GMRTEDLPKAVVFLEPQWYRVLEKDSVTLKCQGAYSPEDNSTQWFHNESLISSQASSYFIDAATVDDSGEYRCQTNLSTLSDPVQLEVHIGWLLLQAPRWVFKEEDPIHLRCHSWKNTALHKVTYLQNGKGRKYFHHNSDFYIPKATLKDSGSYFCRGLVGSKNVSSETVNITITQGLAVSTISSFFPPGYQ
Assay: SPR (BIACORE); KD of SG1 / KD of variant;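 also: relative to parent M103205H795-SG1 carrying the SG1 human heavy chain constant region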

Row | KD fold (SG1 = 1) | Binder
45 | 0.14 fold | B1
46 | 0.15 fold | B2
47 | 0.43 fold | B3
48 | 0.19 fold | B4
49 | 0.23 fold | B5
50 | 0.19 fold | B6
51 | 0.25 fold | B7
52 | 0.2 fold | B8
53 | 0.18 fold | B9
54 | 0.19 fold | B10
55 | 0.18 fold | B11

Biological target: T1, cynomolgus monkey FcγRIIIaS …
Assay: SPR (BIACORE); KD of SG1 / KD of variant

Row | KD fold (SG1 = 1) | Binder
56 | 0.19 fold | B1
57 | 0.17 fold | B2
58 | 0.42 fold | B3
59 | 0.26 fold | B4
60 | 0.42 fold | B5
61 | 0.23 fold | B6
62 | 0.36 fold | B7
63 | 0.16 fold | B8
64 | 0.18 fold | B9
65 | 0.15 fold | B10
66 | 0.24 fold | B11

Biological target: T5, human FcγRIIb extracellular domain with …
Assay: SPR (BIACORE); KD of SG1 / KD of variant

Row | KD fold (SG1 = 1) | Binder
67 | 4.2 fold | B1
68 | 4.2 fold | B2
69 | 5.5 fold | B3
70 | 3.8 fold | B4
71 | 2.5 fold | B5
72 | 3.8 fold | B6
73 | 3.2 fold | B7
74 | 3.3 fold | B8
75 | 4.5 fold | B9
76 | 2.1 fold | B10
77 | 3.5 fold | B11

Biological target: T6, cynomolgus monkey FcγRIIa2 …
Assay: SPR (BIACORE); KD of SG1 / KD of variant

Row | KD fold (SG1 = 1) | Binder
78 | 4.3 fold | B1
79 | 3.9 fold | B2
80 | 8.5 fold | B3
81 | 4.6 fold | B4
82 | 4.6 fold | B5
83 | 4.3 fold | B6
84 | 3.5 fold | B7
85 | 3.6 fold | B8
86 | 4.6 fold | B9
87 | 3.4 fold | B10
88 | 3.5 fold | B11

Biological target: T7, human FcγRIIaH extracellular domain …
Assay: SPR (BIACORE); KD of SG1 / KD of variant

Row | KD fold (SG1 = 1) | Binder
89 | 2.9 fold | B1
90 | 3.6 fold | B2
91 | 3.3 fold | B3
92 | 3.3 fold | B4
93 | 4.1 fold | B5
94 | 4.1 fold | B6
95 | 2.4 fold | B7
96 | 3 fold | B8
97 | 6.3 fold | B9
98 | 2 fold | B10
99 | 6.3 fold | B11
